One series concerns the target GRPR (Homo sapiens, UniProt P30550). Particulars: GRPR-expressing human PC-3 cells, 125I-[Tyr4]-BBN, 1 h 37°C.
Another series is described as follows: in vivo. Particulars: male, ICR-SCID, mouse, iv, total radioactivity; for tissue uptake at 1 h / tissue uptake at 4 h / tissue uptake at 24 h: 20 μCi.
The subject of series [1] is PC-3 tumor-bearing SCID mice.

Sequence of GRPR (P30550 whole entry): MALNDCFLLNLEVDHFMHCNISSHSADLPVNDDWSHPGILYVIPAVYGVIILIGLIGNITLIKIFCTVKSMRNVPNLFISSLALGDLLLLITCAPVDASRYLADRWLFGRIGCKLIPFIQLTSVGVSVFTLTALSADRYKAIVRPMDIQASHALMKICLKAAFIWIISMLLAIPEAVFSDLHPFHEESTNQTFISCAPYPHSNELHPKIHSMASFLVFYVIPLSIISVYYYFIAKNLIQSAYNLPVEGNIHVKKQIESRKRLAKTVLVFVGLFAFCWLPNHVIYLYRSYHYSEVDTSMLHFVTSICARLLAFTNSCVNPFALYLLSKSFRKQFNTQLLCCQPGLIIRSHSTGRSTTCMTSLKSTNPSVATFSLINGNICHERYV

For the compound `CC(C)C[C@H](NC(=O)C[C@H](O)[C@H](CC(C)C)NC(=O)[C@H](Cc1c[nH]cn1)NC(=O)CNC(=O)[C@@H](NC(=O)[C@H](C)NC(=O)[C@H](Cc1c[nH]c2ccccc12)NC(=O)[C@H](CCC(N)=O)NC(=O)[C@@H](Cc1ccccc1)NC(=O)CCCCCNC(=O)[C@H](CCC(=O)NCCCC[C@@H]1NC(=O)[C@@H](Cc2ccc(O)cc2)NC(=O)[C@H](CC(=O)O)NC(=O)CNC(=O)[C@H](CCCNC(=N)N)NC1=O)NC(=O)CN1CCN(CC(=O)O)CCN(CC(=O)O)CCN(CC(=O)O)CC1)C(C)C)C(N)=O` [[RGD-Glu-[DO3A]-6-Ahx-RM2]] [[Cyclo-(Arg-Gly-Asp-DTyr-Lys)-(DO3A)-Glu-(6-Ahx-D-Phe-Gln-Trp-Ala-Val-Gly-His-Sta-Leu-NH2)]], on GRPR, the “IC50, PC-3” value is “single-digit, nanomolar range”.

Consider `CC(C)C[C@H](NC(=O)C[C@H](O)[C@H](CC(C)C)NC(=O)[C@H](Cc1c[nH]cn1)NC(=O)CNC(=O)[C@@H](NC(=O)[C@H](C)NC(=O)[C@H](Cc1c[nH]c2ccccc12)NC(=O)[C@H](CCC(N)=O)NC(=O)[C@@H](Cc1ccccc1)NC(=O)CCCCCNC(=O)[C@H](CCC(=O)NCCCC[C@@H]1NC(=O)[C@@H](Cc2ccc(O)cc2)NC(=O)[C@H](CC(=O)O)NC(=O)CNC(=O)[C@H](CCCNC(=N)N)NC1=O)NC(=O)CN1CCN(CC(=O)O)CCN(CC(=O)O)CCN(CC(=O)O)CC1)C(C)C)C(N)=O` [[RGD-Glu-[[^90Y]Y-DO3A]-6-Ahx-RM2], metal not drawn], for which the tissue uptake (in general, the percentage of the injected dose found per gram of tissue) at 1 h worked out at 0.45 ± 0.08 %ID/g in the series “in vivo” (bone); 0.03 ± 0.01 %ID/g in “in vivo” (brain); 0.31 ± 0.06 %ID/g in the series “in vivo” (heart); 2.36 ± 0.49 %ID/g in “in vivo” (kidneys); 0.64 ± 0.12 %ID/g in the series “in vivo” (large intestine); 0.39 ± 0.08 %ID/g in “in vivo” (liver). Besides, the tissue uptake at 1 h in “in vivo” (lung) was found to be 0.8 ± 0.27 %ID/g; in “in vivo” (muscle), 0.22 ± 0.06 %ID/g; in the series “in vivo” (pancreas) it was 6.81 ± 0.92 %ID/g; in the series “in vivo” (small intestine) it was 1.41 ± 0.32 %ID/g; in the series “in vivo” (spleen) it was 1.36 ± 0.25 %ID/g; in the series “in vivo” (stomach), 1.19 ± 0.34 %ID/g. For the same compound, in the series “in vivo” (tumor (PC-3 xenograft)), the tissue uptake at 1 h was 8.7 ± 0.35 %ID/g. The tissue uptake at 4 h in “in vivo” (bone) is 0.29 ± 0.05 %ID/g; in the series “in vivo” (brain), 0.01 %ID/g; in the series “in vivo” (heart), 0.16 ± 0.05 %ID/g; in “in vivo” (kidneys), 1.54 ± 0.31 %ID/g; in the series “in vivo” (large intestine) it was 0.66 ± 0.26 %ID/g; in “in vivo” (liver), 0.35 ± 0.07 %ID/g. For the same compound, the tissue uptake at 4 h worked out at 0.44 ± 0.06 %ID/g in “in vivo” (lung); 0.11 ± 0.02 %ID/g in the series “in vivo” (muscle); 0.55 ± 0.12 %ID/g in “in vivo” (pancreas); 0.39 ± 0.09 %ID/g in the series “in vivo” (small intestine); 1.07 ± 0.18 %ID/g in the series “in vivo” (spleen); 0.33 ± 0.07 %ID/g in “in vivo” (stomach). Besides, in the series “in vivo” (tumor (PC-3 xenograft)), the tissue uptake at 4 h came out at 4.48 ± 0.31 %ID/g. Moreover, the tissue uptake at 24 h in “in vivo” (bone) is 0.33 ± 0.12 %ID/g; in “in vivo” (heart), 0.15 ± 0.04 %ID/g; in the series “in vivo” (kidneys), 0.89 ± 0.21 %ID/g; in the series “in vivo” (large intestine), 0.31 ± 0.06 %ID/g; in “in vivo” (liver) it was 0.29 ± 0.15 %ID/g; in “in vivo” (lung), 0.37 ± 0.1 %ID/g. Besides, the tissue uptake at 24 h turned out to be 0.1 ± 0.03 %ID/g in “in vivo” (muscle); 0.27 ± 0.05 %ID/g in the series “in vivo” (pancreas); 0.34 ± 0.07 %ID/g in “in vivo” (small intestine); 1.21 ± 0.23 %ID/g in “in vivo” (spleen); 0.22 ± 0.03 %ID/g in “in vivo” (stomach); 5.28 ± 0.12 %ID/g in “in vivo” (tumor (PC-3 xenograft)). Further, in “in vivo” (urine, 20 uCi), the dose excreted at 1 h amounted to 84.6 ± 3.52%. In addition, the dose excreted at 4 h in the series “in vivo” (urine, 20 uCi) was determined as 93.4 ± 1.26%. Further, the dose excreted at 24 h in “in vivo” (urine, 20 uCi) came out at 92.7 ± 2.06%. For the same compound, the tissue uptake dose at 1 h in the series “in vivo” (whole blood, 20 uCi) worked out at 0.18 ± 0.04 %ID. Besides, the tissue uptake dose at 4 h in “in vivo” (whole blood, 20 uCi) turned out to be 0.01 %ID. Besides, the tissue uptake dose at 24 h in the series “in vivo” (whole blood, 20 uCi) was 0.01 %ID. The “Biodistribution, Urine (urinary excretion)” value in series [1] (4 h p.i., i.v., n = 5) is given as 93.4 %ID. Further, in series [1] (urine collected from tumor-bearing mice), the “In vivo stability, RP-HPLC of urinary radioactivity” value is “eluted with a similar retention time”.

Values taken from PMC6072280 (Nuclear medicine and biology, 2018).
